Results: article PMC5064212, “HigB of Pseudomonas aeruginosa Enhances Killing of Phagocytes by Up-Regulating the Type III Secretion System in Ciprofloxacin Induced Persister Cells”

B1: 38-bp fragment with scrambled palindrome (EMSA-(M)) (dsDNA)
DNA 1: CTGTAGTGAAGTCTAGACTTAAGCATATGGGTTAATGA
DNA 2: TCATTAACCCATATGCTTAAGTCTAGACTTCACTACAG
B2: 38-bp higB-higA promoter fragment (dsDNA)
DNA 1: CTGTAGTGAAGTTAACGCTTAACGTTAAGGGTTAATGA
DNA 2: TCATTAACCCTTAACGTTAAGCGTTAACTTCACTACAG

Target: HigA-His (Pseudomonas aeruginosa PA14, UniProt A0A0H2ZHN2 1-101)
Assay: EMSA; 0, 4 or 20 nM HigA, 300 ng DNA, 5 mM Ca2+
Details: protein: recombinant; tags: His (6xHis with Gly-Gly linker at C-terminus per higA cloning primer S4); chain copies: 2; label: none (ethidium bromide stain); blunt

| Binder | binding result |
| --- | --- |
| B1 | no binding |
| B2 | binds |
